From patent US20090092544A1

Key:
[1] = target: ROBO1 expressed on ROBO1-expressing HEK293 cells (ROBO1/pcDNA3.1, C-terminal V5 tag) (human) (UniProt Q9Y6N7); test: cell-based or functional assay
[2] = target: ROBO1 expressed on ROBO1-expressing HEK293 cells (ROBO1/pcDNA3.1, C-terminal V5 tag) (human) (UniProt Q9Y6N7); test: FACS on ROBO1-expressing HEK293 cells, signal intensity digitized

UniProt Q9Y6N7, sequence (Q9Y6N7 26-1651): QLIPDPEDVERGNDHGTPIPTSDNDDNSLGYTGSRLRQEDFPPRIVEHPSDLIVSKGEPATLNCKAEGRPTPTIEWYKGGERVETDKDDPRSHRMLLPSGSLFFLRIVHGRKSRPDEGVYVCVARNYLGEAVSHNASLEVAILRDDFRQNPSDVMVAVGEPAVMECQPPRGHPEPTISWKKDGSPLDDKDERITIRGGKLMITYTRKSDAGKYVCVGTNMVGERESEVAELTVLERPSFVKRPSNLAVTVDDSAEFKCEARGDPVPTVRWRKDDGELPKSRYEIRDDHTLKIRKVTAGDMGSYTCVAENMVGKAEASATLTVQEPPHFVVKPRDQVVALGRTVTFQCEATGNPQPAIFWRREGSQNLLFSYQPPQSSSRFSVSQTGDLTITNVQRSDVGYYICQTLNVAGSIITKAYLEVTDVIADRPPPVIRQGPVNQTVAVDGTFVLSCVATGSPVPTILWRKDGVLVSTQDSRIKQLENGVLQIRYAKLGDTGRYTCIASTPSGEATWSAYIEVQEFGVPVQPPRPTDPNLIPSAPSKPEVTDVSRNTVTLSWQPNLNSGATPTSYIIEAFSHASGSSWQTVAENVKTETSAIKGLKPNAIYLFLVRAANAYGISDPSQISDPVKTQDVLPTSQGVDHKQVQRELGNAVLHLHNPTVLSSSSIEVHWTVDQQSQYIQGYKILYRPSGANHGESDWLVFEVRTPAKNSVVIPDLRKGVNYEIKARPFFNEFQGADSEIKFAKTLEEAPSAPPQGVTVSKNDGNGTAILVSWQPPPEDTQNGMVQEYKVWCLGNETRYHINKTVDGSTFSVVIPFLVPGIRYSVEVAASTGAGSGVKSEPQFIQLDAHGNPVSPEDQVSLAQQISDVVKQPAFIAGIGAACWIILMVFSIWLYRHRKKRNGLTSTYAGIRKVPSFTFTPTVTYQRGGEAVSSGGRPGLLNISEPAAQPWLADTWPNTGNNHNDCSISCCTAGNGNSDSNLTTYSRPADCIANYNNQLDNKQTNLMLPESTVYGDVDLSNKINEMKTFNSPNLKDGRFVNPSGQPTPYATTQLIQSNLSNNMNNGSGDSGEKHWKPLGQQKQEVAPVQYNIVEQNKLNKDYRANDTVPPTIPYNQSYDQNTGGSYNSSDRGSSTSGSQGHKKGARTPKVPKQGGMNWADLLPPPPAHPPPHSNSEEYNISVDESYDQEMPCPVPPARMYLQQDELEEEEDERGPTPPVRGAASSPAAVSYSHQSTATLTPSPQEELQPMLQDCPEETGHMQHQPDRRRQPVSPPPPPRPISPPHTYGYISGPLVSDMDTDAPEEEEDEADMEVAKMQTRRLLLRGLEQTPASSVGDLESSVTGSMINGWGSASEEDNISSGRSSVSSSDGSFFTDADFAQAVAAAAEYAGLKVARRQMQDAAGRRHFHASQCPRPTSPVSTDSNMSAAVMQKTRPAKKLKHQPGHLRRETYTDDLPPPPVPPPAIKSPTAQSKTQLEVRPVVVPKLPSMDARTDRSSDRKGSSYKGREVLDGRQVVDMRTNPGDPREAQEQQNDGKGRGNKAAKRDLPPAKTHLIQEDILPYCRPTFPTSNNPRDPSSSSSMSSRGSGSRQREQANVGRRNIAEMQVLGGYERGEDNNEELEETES

B1: B5209B (antibody, from another filing, mouse IgG2b)
scFv: MAEVQLVESGGGVVQPGGSLKLSCAASGFTFSTYDMSWVRQTPDKRLELVATINSNGGSTYYPDSVKGRFTSSRDNAKNILYLQMSSLKSEDTAMYYCAREALLRPPYYALDYWGQGTSVTVSSAGGGGSGGGGSGGGGSGGGGSDILDIQMTQSPASLSASVGETVTITCGASENIYGALTWYQRKQGKSPQLLIYGAINLADDKSSRFSGSGSGRQYSLKISSLHPDDVATYYCQNVLSTPFTFGSGTKLEIKAAGHHHHHH
[1]
  CDC (%), measured value at 0.1 ug/mL: 87.2%
[2]
  EC50: 3.1 nM
